The DeepSol protein solubility set

Assay: soluble on expression in E. coli; label from the status in PepcDB or PDB records

| Sequence | soluble on expression in E. coli |
| --- | --- |
| MKCSKCQAEAIYFAKYNGLYLCREHFNDMIEKRVKSEIRNQVDLKKPMVRISVAISGGKDSSVTLYLLHKILSKRRNVELTAFTVDEGISGYRPAGLESAIKLTKMLGVDHSIIRFQDSFGMTLDSIVGADASRIPCSYCGPLRRKLINEMAERQNADYVALGLNLDDYSQSILMNVAKGDYDRLLRMSPQKEAKDGLVRRIAPLRSVLEKEVVLYAVINGIPFDSSWCPYYSRAQRNIFREVVNTLSEYNPSTKFSILKFFERARSDVQRNDKALGRCRICGAPTENDVCSACAAMESLRNERKASESELHAR | not soluble |
| MKELVVVAIGGNSIIKDNASQSIEHQAEAVKAVADTVLEMLASDYDIVLTHGNGPQVGLDLRRAEIAHKREGLPLTPLANCVADTQGGIGYLIQQALNNRLARHGEKKAVTVVTQVEVDKNDPGFAHPTKPIGAFFSDSQRDELQKANPDWCFVEDAGRGYRRVVASPEPKRIVEAPAIKALIQQGFVVIGAGGGGIPVVRTDAGDYQSVDAVIDKDLSTALLAREIHADILVITTGVEKVCIHFGKPQQQALDRVDIATMTRYMQEGHFPPGSMLPKIIASLTFLEQGGKEVIITTPECLPAALRGETGTHIIKT | soluble |
| KTIAIIGAGIVGVSTAIWLQRDGHQVVLIDRAGPAEGTSYGNGGVLASCSIVPVTTPGLIAKAPRMLFSPNEPLFLRWGYLPRLAPWLLRYLRRANARDATQTAAAMAPIVGDSLADHLALAQGTGAEKWVVPSDYLFIYNDRAHFQGDAFGWNLRRQNGFVWDEMEAEEFRGYDPIFSSDLRFAVRLKDHGRITDPGQYVKDLAAHVVASGGQLIQADVEDIARENGRVTGVRAGGRTIPCDAAVIATGVWSGPLARKLGLEVPLEAERGYHIEFWNPNFMPKSPVMVAARKFVATPMEGRLRLAGVVEFGGLDAGPSRAPIELLKRSAAAVFPGLKADEVTEWLGHRPAPADSIPVIGELPHLKGAFTGFGHHHVGLTGGPKTGRILAQLIAGRQPNIDL | not soluble |
| MIEVDGYFYHNAGAENKNTFVNDRWKMNDAAVRGYLVLRYPASSVFEELDTIVGQVIFATRVVREELVVVDSTRRWHRGPWEWLPLDSW | not soluble |
| MPDVPETVGTPDGSTEFEHRPTTDQSFENALAKARNGTRLTVDDAVELFTTGTDRDGIDHDRKEQVLEAADRRRAEVVGDEVTFVANLNNNVTTACNTGCLFCNFKDRSEQFRSDYQEDHGGFTKTPSESRQIVQDALDRGIYEVCSVSGLHPALALDTEHREILETSDRGDLNYRSPDEYETDPATYCEQLDAMNVGDIHLHSMTPEEAYHARRGTDWSYEEVFSRLQDAGLDSVPGTAAEILVDEVRDVICPGKIRTDEWLEAMAAAASVGLDMTSTMMYGHVENEYHRALHLQRIRDLQDRTGAITEFVPLSFVHEETPLYERGMVDGGATVDEDELMIAVSRLFLDNVDHIQASWVKYGDTQGLKMLTCGADDFMGTILSEEITKRAGGDYGEFRSFQEYADMITAIGRTPVERSTDYEQRRVIDPDADVLGPQLGPRADGTPLLD | not soluble |
| GLNHMTARYLREEHHMFRAAFRKFLEKEAYPHYNDWEKRGIIPRSFWAKMGENGFLCPWVDEKYGGLNADFAYSVVINEELEKVGSSLVGIGLHNDIVTPYIASYGTEEQKQKWLPKCVTGELITAIAMTEPGAGSDLANISTTAVKDGDYYIVNGQKTFITNGIHADLIVVACKTDPQAKPPHRGISLLVVERDTPGFTRGRKLEKVGLHAQDTAELFFQDAKVPAYNLLGEEGKGFYYLMEKLQQERLVVAIAAQTAAEVMFSLTKQYVKQRTAFGKRVSEFQTVQFRLAEMATEIALGRTFVDRVIEEHMAGKQIVTEVSMAKWWITEMAKRVAAEAMQLHGGYGYMEEYEIARRYRDIPVSAIYAGTNEMMKTIIARQLDL | soluble |
| MCQSNQIVSHFLSHRNVTNELAEKISKDHYSYKPAETSMSAEELVKHILTSFHLFANVIKEGNASPFQNKQEETETDLNVLAKTYTEKTVAILEQLTEEQLDREIDLTSAFGRKVTGRALLQLAMEHEIHHKGNLFVYVREMGHTELPFYQQRMLEHHHHHH | soluble |
| MISSWEQKNNCVMPEDVRNFYLMTNGFHMTWSVKLDDHIIPLGSMVINGISKLTQLIQSSVYSLPNAPTLADLEDDSQEGNEDHQLEKPHFDCRSAIFELDSCGGNGKVCLVYKNGKPGLAHDTEIWFLDRALYWHFLTDTFTAYYRLLITHLGLPQWQYAFTSYGISPQAKQWFSMYKPITYNTSLLTEEPDTFVNKLDPSKVFKSKNKILIPKKKGPVQPVSGQKGPGPLAPPTSKPSAGCGNPVRK | not soluble |
| QIGELKTTVGNSTIKVNDEVQVGSAFEAILGIEGLNGDTEVYSAEYLFEYNAEAFILNEITSFNDSLFVKSKEVEPGKVRILVASLGNEIEKDSDLVKVNLTPKISSELEVLGLTTALVGAGDGNTHDLELSSKEVKINEEAS | soluble |
| MGSDKIHHHHHHMNEVLDEYRRLLSEVDHWFSRCIARSGEHIRCAEGCSECCRGLFDITLLDAALLKEGFDRLDAFTREQVLVKCRKRLAGLLRLWPEFAHPYMLNYRPEEEWELLMPDDDETPCPLLGADGRCLVYGFRPMTCRLHGLPLVDLTGEVLHDEWCTLNYVGGDPLADAGLRGEFTKIFREEVRLFRHFSERLLGQEFRELDTFIPTALLIDFTRFDWHRFAAGFSVTP | not soluble |
| MRLDVEQTSKLDRVRADYNVHYWSQGFYGIDDQGEMYVSPRSDNAHQIQLSKIVKQLEERQLNVPVLVRFPQILHQRVHSICDAFNQAIEEYQYPNKYLLVYPIKVNQQREVVDEILASQAQLETKQLGLEAGSKPELLAVLAMAQHASSVIVCNGYKDREYIRLALIGEKLGHKVFIVLEKMSELDLVLREAKSLGVTPRLGIRIRLASQGAGKWQASGGEKSKFGLSASQVLNVISRLKKENQLDTLQLVHFHLGSQMANIRDVRNGVNESARFYCELRTLGANITYFDVGGGLAIDYDGTRSQSSNSMNYGLVEYARNIVNTVGDVCKDYKQPMPVIISESGRSLTAHHAVLISNVIGTETYKPETVTEPEEDFPLLLNNMWRSWLNLHNGTDARALIEIYNDTQSDLAEVHSQFATGVLTLEHRAWAEQTSLRIYYELNRLMSTKNRFHRPILDELSERLADKFFVNFSLFQSLPDSWGIDQVFPVLPLSGLQNAADRRAVMLDITCDSDGAIDAYVDGQGIESTLPVPAWNEDEPYLMGFFLVGAYQEILGDMHNLFGDTHSVVVNVGDQGEINIDFINEGDTVEDMMRYVHIDVDQIRKNYHSLVSQRVDQEEQQQILAELEQGLSGYTYLEDFLEHHHHHH | soluble |
| SNAMDMVTVTAKTVEEAVTKALIELQTTSDKLTYEIVEKGSAGFLGIGSKPAIIRAKRKETLQDKAIEFLEQVFDAMNMAVDISVEYNETEKEMNVNLKGDDMGILIGKRGQTLDSLQYLVSLVVNKSSSDYIRVKLDTENYRERRKETLETLAKNIAYKVKRTKRSVSLEPMNPYERRIIHAALQNDKYVVTRSDGEEPFRHVIISLKRENRRDRNDRSDRNEK | soluble |
| MAEREQSNDSARTDVPAIVSLRTRELDTGEGRMQWASTLERLYCETDVAWPEPRRHFDAEWGGRPFGDLHVSTIRADAHTVVRSPAMIQSDSGEGYLVCLVTDGSVEVRQSGRATVVEPGSFALLDCAAPFVFHSPAPFRQVVVRSPREVLTSRLPGRIVEHGTARSIHGDTGAGGLVGRLFVDIADMDAPMSQGAAVSFASSAVDMLATALTEGLLATSAADLHRTEDLRRVQRVIEQNLHDADITLSDIAAAAGMSLRTVHKLFNAEGTTTRAWLYQARLEAARKYLLTTDLSVADVSECAGFRDVSHFSRLFRSTFGSSPGLYRKEHARRVS | not soluble |
| MGSDKIHHHHHHMKIVFMGTPEFAAAHLKEIVESGNKVAGVFSQPDRPKGRGQKVEPTPVKTVATNYGIPVFQPEKINSDEGFEKLSELSPDIIVVVAFGKLLKSGVINLPTIGCFNVHASLLPKYRGAAPIQRAIENGETKTGITIFKIDEGMDTGAIALKRELEIHPSDSFGSLYLKLAELGKKTLVHFLERVKEGRLELAPQDGIPSFAPKIQPEDLVISDLSDAAKVVNKIRAYDPQPGARVSVEGRISKVFGASLKCRNEGKGIVGEIVKIDDRGMIVSCGAENVIISLVQFPGKKPMRPKDALSGRLISEGIILGG | not soluble |
| GGGGGGMKRFYIANEDEIKAGKTTDVYFLRTKKILEVKNIRKKVLADVTTTSLPNNWRWGVLVGVEEVAKLLEGIPVNVYAMPEGTIFHPYEPVLQIEGDYADFGIYETALLGMLSQASGIATAALRIKIAAKFKPVYSFGIRHMHPAIAPMIDRAAFIGGCDGVSGVLGAEMMGEKAVGTMPHALIITVGDQVKAWKYFDEVIEEEVPRIALVDTFYDEKVEAVMAAEALGKKLFAVRLDTPSSRRGNFRKIIEEVRWELKVRGYDWVKIFVSGGLDEEKIKEIVDVVDAFGVGGAIASAKPVDFALDIVEVEGKPIAKRGKLSGRKQVYRCENGHYHVVPANKKLERCPVCNAKVEPLLKPIIENGEIVVEFPKAREIREYVLEQAKKFNLEI | soluble |
| MAHHHHHHMDSIVLPGEALGSCDAYVSGENTYSLQKEVRSAILGRRQLTTNGDGKQVISVANTKEFIPLPQVGDLVTCKVYRVTFNLIYCNIILLNSKAVRNSFRAFINKSDIHVYEGELGDNFECFKQGDIIRAKVLSVAQHGSYKLSTVGSDLGVILALSDGGERKRGKKQKKTKKQKKKKKKKEP | not soluble |
| MTQRDTGRLDAIVLAAGRGVRFGGGKLTALLDGDPLVAAALLTAFLAPARRVVVAVGPEPDVRQAVEATATRLLARERLVLVPIDDPSAGMGASLAAAARSLPGDTDGVFVFLGDMPRIDPATPRHLAAALRDPGDIVAPTYLGRRGHPVLFGARWAPVLGALSGDEGARAIVDKAGESLVLVPVDDPGVHLDVDRPSDLARVQTDRRTLLEHHHHHH | soluble |
| MGSSHHHHHHSSGLVPRGSHMSLDMKEHPDAEVQKNQVLTLEDWKEKWVTRHISFHQEQGHQLLKKHLDTFLKGQSGLRVFFPLCGKAIEMKWFADRGHTVVGVEISEIGIREFFAEQNLSYTEEPLAEIAGAKVFKSSSGSISLYCCSIFDLPRANIGKFDRIWDRGALVAINPGDHDRYADIILSLLRKEFQYLVAVLSYDPTKHAGPPFYVPSAELKRLFGTKCSMQCLEEVDALEERHKAWGLDYLFEKLYLLTEK | soluble |
| MAWPDLDPPRLAERPLSLQEALFVLEAPPEALPALAEAAIRVKEYFFGRRLKLVRLLNVKSGFCPEDCAYCAQSARSQAAIARYPLLSLEEILERAEEAQRLSARRFCLVAALRGPTPKVLERLGEAAQAIKARFPLELCASLGLLEEGMAEALKAAGFDYYNHNLNTVPSLYPRIATTHTYQDRLWTLKRAREAGLKLCSGVILGMGEGPKEVYEMALALRELGVESLPVNFLLPIPGTPLGDGRTVAGLTPERALKALILFRLLNPKAELRASAGRERYLGPYEPLAFRMVNSIFLQGYLTQPGSPWERDRALWESLDLDVEEGACG | soluble |
| MEHYMNTLAETMQRYVEKHDLHNLEGIKQTAIEGVWFYRSSKGNNRQPFVYQSGIIVLGQGHKNIHIGQTPVQYGPDDYLVVGVPMPLECEAFATNNEPLLGISIDISPTLLHKLVKKLEAQKFSNICEDSKRCGLKSVRMNDAMLDACKRLMKALCNDLDVAILGESLLEEIVYRTLVSKEGYVLFELAHQEGSYARVAKALNRVHAEYHEQLNVQTLAEEANMSVSAFHQAFRSVTLESPLQYIKKVRLNKARDLIQLEGKRVNDAARLVGYSSPSQFSREYKRHFNETPRSTKA | not soluble |
| MGSNPPASPLQDNLVIALHSYEPSHDGDLGFEKGEQLRILEQSGEWWKAQSLTTGQEGFIPFNFVAKANSLEPEPWFFKNLSRKDAERQLLAPGNTHGSFLIRESESTAGSFSLSVRDFDQNQGEVVKHYKIRNLDNGGFYISPRITFPGLHELVRHYTNASDGLCTRLSRPCQT | soluble |
